{
  "source": "paper PMC4323857",
  "molecular_target": "D4 self-association region of P6 (amino acids 414-520), in pEG202 (Cauliflower mosaic virus isolate CM1841)",
  "test": "two-hybrid",
  "data": [
    {"substance": "Full-length P6 with the D3b mutation V324A, in pJG4-5 (natural protein)", "values": [
      {"measurement": "fold less β-galactosidase activity than the wild type", "value": 9, "unit": "fold"}
    ]}
  ]
}
